Assay results: patent publication US20260242478A1 (published 2026)
Where no end group is shown, it is not given here.

Columns and labels:
[1] = target: T1, Anti-CD28 Fab (SEQ ID NOs: 696, 697); experiment: phage binding ELISA; biotinylated anti-CD28 Fab on neutravidin plate, clonal phage detected with anti-M13 HRP
T1 construct: In the phage ELISA the Fab was biotinylated and captured on neutravidin coated plates
T1 sequence (VH, as listed by the source, chain 1 of 2): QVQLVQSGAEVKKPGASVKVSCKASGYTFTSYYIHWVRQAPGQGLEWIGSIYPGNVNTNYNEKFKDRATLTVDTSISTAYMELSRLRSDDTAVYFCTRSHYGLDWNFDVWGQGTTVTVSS
T1 sequence (VL, as listed by the source, chain 2 of 2): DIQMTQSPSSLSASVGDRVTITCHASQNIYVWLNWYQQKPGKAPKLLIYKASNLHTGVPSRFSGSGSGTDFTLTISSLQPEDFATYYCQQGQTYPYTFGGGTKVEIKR
Description: (§1) After panning, phage infected bacteria were plated out and colonies picked into 96 well blocks. Clonal phage was then amplified and separated from bacterial cells via centrifugation.
(§2) Clonal phage were harvested as crude supematants and screened via standard ELISAs. […] Prior to the addition of clonal phage, wells were incubated with blocking buffer and CD28 antigen or blocking buffer alone. Without washing or aspirating, clonal phage supematants were then added to the wells and incubated for a short time. Wells were then washed followed by detection of bound phage using a horse radish conjugated anti-M13 antibody. Clonal phage of interest were then sent for sequence analysis.

[2] = target: T1, Anti-CD28 Fab (SEQ ID NOs: 696, 697); experiment: phage binding ELISA; Fab-coated wells pre-incubated with CD28 antigen as competitor, phage detected with anti-M13 HRP
Description: as §1, §2

[3] = target: T2, Anti-CD28 Fab (SEQ ID NOs: 696, 697); experiment: phage ELISA; captured anti-CD28 Fab pre-incubated with CD28 antigen as competitor, anti-M13 HRP detection;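 also: crude clonal phage supernatants screened by ELISA, with wells pre-incubated with CD28 antigen in blocking buffer, compared against wells given blocking buffer alone as control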
T2 construct: In the phage ELISA the Fab was biotinylated and captured on neutravidin coated plates
T2 sequence (VH, as listed by the source, chain 1 of 2): as the sequence (VH, as listed by the source, chain 1 of 2) above
T2 sequence (VL, as listed by the source, chain 2 of 2): as the sequence (VL, as listed by the source, chain 2 of 2) above
Description: as §1, §2

[4] = target: T2, Anti-CD28 Fab (SEQ ID NOs: 696, 697); experiment: phage ELISA; biotinylated anti-CD28 Fab on neutravidin plate, clonal phage supernatant, anti-M13 HRP detection;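 also: crude supernatants of single phage clones picked after panning were screened for binding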
[5] = target: Anti-CD28 Fab (SEQ ID NOs: 696, 697); experiment: phage ELISA on captured anti-CD28 Fab, wells pre-incubated with CD28 antigen as competitor;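 also: crude clonal phage supernatants added without washing, bound phage read out by HRP-coupled anti-M13 antibody, reference wells given blocking buffer only instead of CD28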
Target sequence in this assay (VH, as listed by the source, chain 1 of 2): as the sequence (VH, as listed by the source, chain 1 of 2) above
Target sequence in this assay (VL, as listed by the source, chain 2 of 2): as the sequence (VL, as listed by the source, chain 2 of 2) above
Description: as §1, §2

[6] = target: Anti-CD28 Fab (SEQ ID NOs: 696, 697); experiment: phage ELISA, clonal phage supernatant on biotinylated anti-CD28 Fab captured on neutravidin plates
Target sequence in this assay (VH, as listed by the source, chain 1 of 2): as the sequence (VH, as listed by the source, chain 1 of 2) above
Target sequence in this assay (VL, as listed by the source, chain 2 of 2): as the sequence (VL, as listed by the source, chain 2 of 2) above
Description: as §1, §2

[7] = target: T3, Anti-CD28 Fab (SEQ ID NOs: 696, 697); experiment: phage ELISA; Fab on plate pre-incubated with CD28 antigen as competitor, anti-M13 HRP detection
T3 construct: Used biotinylated and captured on neutravidin coated plates in the phage ELISA
T3 sequence (VH, as listed by the source, chain 1 of 2): as the sequence (VH, as listed by the source, chain 1 of 2) above
T3 sequence (VL, as listed by the source, chain 2 of 2): as the sequence (VL, as listed by the source, chain 2 of 2) above
Description: as §1, §2

[8] = target: T3, Anti-CD28 Fab (SEQ ID NOs: 696, 697); experiment: phage ELISA; biotinylated Fab on neutravidin plate, clonal phage supernatant, anti-M13 HRP detection
Description: as §1, §2

B1: Phage-1086 (peptide)
peptide: YCDGHVKEYMYKCL
modifications: cysteine pairing not given here; also: displayed as fusion to phage pIII, linker not given here
Anti-CD28 Fab signal (phage binding ELISA) [1]: 1.36 | Anti-CD28 Fab signal in the presence of CD28 (phage binding ELISA) [2]: 0.06

B2: Phage-1114 (Peptide-87 library clone, SEQ ID NO: 1430) (peptide)
peptide: YCEGHSLEYMMKCV
notes: Tested as clonal phage supernatant; not shown: pIII coat protein of the bacteriophage to which the peptide is fused
Anti-CD28 Fab signal in the presence of CD28 (phage binding ELISA) [3]: 0.07 | Anti-CD28 Fab signal (phage binding ELISA) [4]: 1.3

B3: Phage-1105 (Peptide-87 library clone, SEQ ID NO: 1421) (peptide)
peptide: YCEGHLEIYLAKCL
notes: as for B2
Anti-CD28 Fab signal in the presence of CD28 (phage binding ELISA) [3]: 0.07 | Anti-CD28 Fab signal (phage binding ELISA) [4]: 1.32

B4: Phage-1126 (peptide)
peptide: YCEGHSTEYMAKCL
notes: Peptide-87 library clone, tested as clonal phage (peptide fused to pIII of the bacteriophage)
Anti-CD28 Fab signal in the presence of CD28 (phage binding ELISA) [5]: 0.06 | Anti-CD28 Fab signal (phage binding ELISA) [6]: 1.27

B5: Phage-1087 (peptide)
peptide: YCDGHLALYMWKCL
modifications: cysteine pairing not given here; also: displayed as fusion to phage pIII, linker not given here
Anti-CD28 Fab signal (phage binding ELISA) [1]: 1.36 | Anti-CD28 Fab signal in the presence of CD28 (phage binding ELISA) [2]: 0.17

B6: Phage-1115 (Peptide-87 library clone, SEQ ID NO: 1431) (peptide)
peptide: YCDGHAPQYMAKCI
notes: as for B2
Anti-CD28 Fab signal in the presence of CD28 (phage binding ELISA) [3]: 0.06 | Anti-CD28 Fab signal (phage binding ELISA) [4]: 1.3

B7: Phage-1112 (Peptide-87 library clone, SEQ ID NO: 1428) (peptide)
peptide: YCDGHSAEYIAKCL
notes: as for B2
Anti-CD28 Fab signal in the presence of CD28 (phage binding ELISA) [3]: 0.05 | Anti-CD28 Fab signal (phage binding ELISA) [4]: 1.31

B8: Phage-1108 (Peptide-87 library clone, SEQ ID NO: 1424) (peptide)
peptide: YCEGHLPEYMIKCL
notes: as for B2
Anti-CD28 Fab signal in the presence of CD28 (phage binding ELISA) [3]: 0.06 | Anti-CD28 Fab signal (phage binding ELISA) [4]: 1.32

B9: Phage-1109 (Peptide-87 library clone, SEQ ID NO: 1425) (peptide)
peptide: YCEGHLPAYMWKCL
notes: as for B2
Anti-CD28 Fab signal in the presence of CD28 (phage binding ELISA) [3]: 0.08 | Anti-CD28 Fab signal (phage binding ELISA) [4]: 1.31

B10: Phage-1123 (peptide)
peptide: YCDGHSPAYLQKCL
notes: as for B4
Anti-CD28 Fab signal in the presence of CD28 (phage binding ELISA) [5]: 0.06 | Anti-CD28 Fab signal (phage binding ELISA) [6]: 1.28

B11: Phage-1128 (peptide)
peptide: YCDGHAEEYRMKCL
notes: as for B4
Anti-CD28 Fab signal in the presence of CD28 (phage binding ELISA) [5]: 0.08 | Anti-CD28 Fab signal (phage binding ELISA) [6]: 1.27

B12: Phage-1124 (peptide)
peptide: YCEGHSSQWMWKCL
notes: as for B4
Anti-CD28 Fab signal in the presence of CD28 (phage binding ELISA) [5]: 0.09 | Anti-CD28 Fab signal (phage binding ELISA) [6]: 1.27

B13: Phage-1107 (Peptide-87 library clone, SEQ ID NO: 1423) (peptide)
peptide: YCAGHALEYMGKCL
notes: as for B2
Anti-CD28 Fab signal in the presence of CD28 (phage binding ELISA) [3]: 0.06 | Anti-CD28 Fab signal (phage binding ELISA) [4]: 1.32

B14: Phage-1116 (peptide)
peptide: YCQGHSVEHMAKCL
notes: as for B4
Anti-CD28 Fab signal in the presence of CD28 (phage binding ELISA) [5]: 0.06 | Anti-CD28 Fab signal (phage binding ELISA) [6]: 1.3

B15: Phage-1117 (peptide)
peptide: YCAGHMPIYMTKCL
notes: as for B4
Anti-CD28 Fab signal in the presence of CD28 (phage binding ELISA) [5]: 0.08 | Anti-CD28 Fab signal (phage binding ELISA) [6]: 1.3

B16: Phage-1104 (Peptide-87 library clone, SEQ ID NO: 1420) (peptide)
peptide: YCSEHQIIFIQKCL
notes: as for B2
Anti-CD28 Fab signal in the presence of CD28 (phage binding ELISA) [3]: 0.08 | Anti-CD28 Fab signal (phage binding ELISA) [4]: 1.32

B17: Phage-1121 (peptide)
peptide: YCEGHLPRYMLKCL
notes: as for B4
Anti-CD28 Fab signal in the presence of CD28 (phage binding ELISA) [5]: 0.3 | Anti-CD28 Fab signal (phage binding ELISA) [6]: 1.28

B18: Phage-1119 (peptide)
peptide: YCEGHLVQYMQKCL
notes: as for B4
Anti-CD28 Fab signal in the presence of CD28 (phage binding ELISA) [5]: 0.06 | Anti-CD28 Fab signal (phage binding ELISA) [6]: 1.28

B19: Phage-1120 (peptide)
peptide: YCMGHLPIYMEKCL
notes: as for B4
Anti-CD28 Fab signal in the presence of CD28 (phage binding ELISA) [5]: 0.05 | Anti-CD28 Fab signal (phage binding ELISA) [6]: 1.28

B20: Phage-1103 (Peptide-87 library clone, SEQ ID NO: 1419) (peptide)
peptide: YCAGHLPMYMQKCL
notes: as for B2
Anti-CD28 Fab signal in the presence of CD28 (phage binding ELISA) [3]: 0.08 | Anti-CD28 Fab signal (phage binding ELISA) [4]: 1.33

B21: Phage-1110 (Peptide-87 library clone, SEQ ID NO: 1426) (peptide)
peptide: YCEGHLPMYMQKCL
notes: as for B2
Anti-CD28 Fab signal in the presence of CD28 (phage binding ELISA) [3]: 0.08 | Anti-CD28 Fab signal (phage binding ELISA) [4]: 1.31

B22: Phage-1122 (peptide)
peptide: YCDGHLEVYMDKCL
notes: as for B4
Anti-CD28 Fab signal in the presence of CD28 (phage binding ELISA) [5]: 0.07 | Anti-CD28 Fab signal (phage binding ELISA) [6]: 1.28

B23: Phage-1125 (peptide)
peptide: YCEGHFPLYMNKCL
notes: as for B4
Anti-CD28 Fab signal in the presence of CD28 (phage binding ELISA) [5]: 0.08 | Anti-CD28 Fab signal (phage binding ELISA) [6]: 1.27

B24: Phage-1102 (Peptide-87 library clone, SEQ ID NO: 1418) (peptide)
peptide: YCDGHLPLYMQKCF
notes: as for B2
Anti-CD28 Fab signal in the presence of CD28 (phage binding ELISA) [3]: 0.1 | Anti-CD28 Fab signal (phage binding ELISA) [4]: 1.33

B25: Phage-1088 (peptide)
peptide: YCDGHLSIYMTKCL
modifications: cysteine pairing not given here; also: displayed as fusion to phage pIII, linker not given here
Anti-CD28 Fab signal (phage binding ELISA) [1]: 1.36 | Anti-CD28 Fab signal in the presence of CD28 (phage binding ELISA) [2]: 0.07

B26: Phage-1111 (Peptide-87 library clone, SEQ ID NO: 1427) (peptide)
peptide: YCDGHIPEYMTKCL
notes: as for B2
Anti-CD28 Fab signal in the presence of CD28 (phage binding ELISA) [3]: 0.06 | Anti-CD28 Fab signal (phage binding ELISA) [4]: 1.31

B27: Phage-1106 (Peptide-87 library clone, SEQ ID NO: 1422) (peptide)
peptide: YCDGHTAEFIGKCL
notes: as for B2
Anti-CD28 Fab signal in the presence of CD28 (phage binding ELISA) [3]: 0.06 | Anti-CD28 Fab signal (phage binding ELISA) [4]: 1.32

B28: Phage-1118 (peptide)
peptide: YCDGHRAEYMLKCL
notes: as for B4
Anti-CD28 Fab signal in the presence of CD28 (phage binding ELISA) [5]: 0.08 | Anti-CD28 Fab signal (phage binding ELISA) [6]: 1.29

B29: Phage-1129 (peptide)
peptide: YCDGHLPVYMTKCL
notes: as for B4
Anti-CD28 Fab signal in the presence of CD28 (phage binding ELISA) [5]: 0.07 | Anti-CD28 Fab signal (phage binding ELISA) [6]: 1.27

B30: Phage-1273 (peptide)
peptide: YCEGHSSEYMVKCL
modifications: cysteine pairing not given here; also: displayed on phage by fusion to pIII, linker and pIII sequence not given here
notes: Peptide-87 library clone on clonal phage (crude supernatant); not shown: fused to the pIII filament protein of the bacteriophage
Phage binding ELISA, Anti-CD28 Fab signal in the presence of CD28 [7]: 0.06 | Phage binding ELISA, Anti-CD28 Fab (SEQ ID NOs: 696, 697) signal [8]: 0.77

B31: Phage-1127 (peptide)
peptide: YCEGHQPAYMEKCL
notes: as for B4
Anti-CD28 Fab signal in the presence of CD28 (phage binding ELISA) [5]: 0.06 | Anti-CD28 Fab signal (phage binding ELISA) [6]: 1.27

B32: Phage-1113 (Peptide-87 library clone, SEQ ID NO: 1429) (peptide)
peptide: YCEGHSAVYMSKCL
notes: as for B2
Anti-CD28 Fab signal in the presence of CD28 (phage binding ELISA) [3]: 0.06 | Anti-CD28 Fab signal (phage binding ELISA) [4]: 1.31
